According to US20210077592A1, “COMPOSITION TO PREVENT INTESTINAL DAMAGE” (FUSION FARM S.R.L. SEMPLIFICATA, priority 2017, published 2021):

Legend:
Caco-2 cells [1] = test: Lucifer Yellow (LY) assay of paracellular permeability in Caco-2 intestinal damage model; type: cell-based
Method: A protocol was developed based on Caco-2 cell inserts model (CACOREADY™ cells, lot no. 24 676 101716 and no. 24 680 111416, Readycell manufacturer) consisting in two steps:
1. Induction of epithelial damage (40 h incubation in glutamine free medium followed by stress induced by 60 mM ethanol for 4 h)
2. Evaluation of the single products first, and then applied in combination during stress induced by the absence of glutamine (60 h), and with subsequent stress induced by ethanol, to evaluate the efficacy in preventing damage. […]
Cells without damage induction (NC=without damage) and with damage induction (PC) were evaluated with the Lucifer Yellow (LY) assay, which verifies the integrity of the cellular junctions in presence of the test substance. […]
According to the experimental protocol, to evaluate the efficacy of the composition of the invention in damage prevention, sodium butyrate (2 mM concentration) and lactoferrin (400 μg/ml concentration), either alone or in combination, were applied on Caco-2 cells during stress induced by absence of glutamine, increasing the time of said deprivation, with respect to the conditions tested during the development of the model, and therefore of stress induction, to 60 hours, to make more evident differences in cells behavior in the different treatment situations. […] The parameters were evaluated at the end. […]

[2] = system: Occludin and Zonula Occludens in Caco-2 cells; test: Fluorescence immunolabeling of Occludin and Zonula Occludens in Caco-2 cells after damage induction; type: cell-based; details: pretreatment 60 h without glutamine, then 60 mM ethanol 4 h
Method: As it can be seen by FIG. 1, the damage induced an increase in permeability. The same cells without damage induction (NC) and with damage induction (PC), as indicated above, were further evaluated by fluorescence immunolabeling of Occludina and Zonula Occludens (proteins present in the intestinal membrane intracellular junctions).
(§1) According to the experimental protocol, to evaluate the efficacy of the composition of the invention in damage prevention, sodium butyrate (2 mM concentration) and lactoferrin (400 μg/ml concentration), either alone or in combination, were applied on Caco-2 cells during stress induced by absence of glutamine, increasing the time of said deprivation, with respect to the conditions tested during the development of the model, and therefore of stress induction, to 60 hours, to make more evident differences in cells behavior in the different treatment situations. At the end of 60 hours, the products were removed, and damage was induced for 4 h with 60 mM ethanol. The parameters were evaluated at the end.
To confirm the observed behavior, an evaluation using fluorescence immunolabeling of Occludin and Zonula Occludens was also performed.

Caco-2 cells [3] = test: Electron Microscopy (SEM) of microvilli of Caco-2 cells after damage induction; type: cell-based; details: pretreatment 60 h without glutamine, then 60 mM ethanol 4 h, 750x-10000x
Method: The same cells without damage induction (NC) and with damage induction (PC), as indicated above, were finally evaluated by Electron Microscopy (SEM) at different magnifications.
as §1
The same cells were finally evaluated also by Electron Microscopy SEM, at various magnifications.

[4] = Solubility of lactoferrin in aqueous solution in the presence of sodium butyrate; type: physicochemical; details: with or without added sodium butyrate
Method: Various solutions, with increasing ratios between sodium butyrate amount and lactoferrin amount, were prepared to verify the possible effect of sodium butyrate addition on lactoferrin solubility in aqueous solution.
In particular, ten different mixtures were prepared, whose weight rations are set out in the following Table 1, and the presence of undissolved body of lactoferrin was observed as a function of the increasing amount of sodium butyrate added to the solution.

B1: lactoferrin (protein, UniProt P02788 20-710, looked up)
Lactotransferrin: GRRRSVQWCAVSQPEATKCFQWQRNMRKVRGPPVSCIKRDSPIQCIQAIAENRADAVTLDGGFIYEAGLAPYKLRPVAAEVYGTERQPRTHYYAVAVVKKGGSFQLNELQGLKSCHTGLRRTAGWNVPIGTLRPFLNWTGPPEPIEAAVARFFSASCVPGADKGQFPNLCRLCAGTGENKCAFSSQEPYFSYSGAFKCLRDGAGDVAFIRESTVFEDLSDEAERDEYELLCPDNTRKPVDKFKDCHLARVPSHAVVARSVNGKEDAIWNLLRQAQEKFGKDKSPKFQLFGSPSGQKDLLFKDSAIGFSRVPPRIDSGLYLGSGYFTAIQNLRKSEEEVAARRARVVWCAVGEQELRKCNQWSGLSEGSVTCSSASTTEDCIALVLKGEADAMSLDGGYVYTAGKCGLVPVLAENYKSQQSSDPDPNCVDRPVEGYLAVAVVRRSDTSLTWNSVKGKKSCHTAVDRTAGWNIPMGLLFNQTGSCKFDEYFSQSCAPGSDPRSNLCALCIGDEQGENKCVPNSNERYYGYTGAFRCLAENAGDVAFVKDVTVLQNTDGNNNEAWAKDLKLADFALLCLDGKRKPVTEARSCHLAMAPNHAVVSRMDKVERLKQVLLHQQAKFGRNGSDCPDKFCLFQSETKNLLFNDNTECLARLHGKTTYEKYLGPQYVAGITNLKKCSTSPLLEACEFLRK
notes: antimicrobial and iron-carrying glycoprotein; B=400 μg/ml lactoferrin
reduction in LY flux with respect to positive control (PC) (Caco-2 cells [1]; product applied during 60 h glutamine deprivation, then 60 mM ethanol 4 h, 2 mM sodium butyrate and/or 400 μg/ml lactoferrin): about 12%
permeability (LY), result in words (Caco-2 cells [1]; treatment at the same time as damage induction): not substantially changed compared to the negative control
fluorescence intensity / expression of tight junction proteins (Occludin, Zonula Occludens), result in words [2]: good level of expression of the tight junctions' markers
effect on microvilli / villous atrophy by SEM, result in words (Caco-2 cells [3]): positive effect on the villi functionality
dissolution of lactoferrin in aqueous solution, result in words [4]: completely undissolved body in suspension
